Data set [1] deals with Complement component C9 (human).
For data set [2], the target named is T1, Complement C2 (human).
T1 chain: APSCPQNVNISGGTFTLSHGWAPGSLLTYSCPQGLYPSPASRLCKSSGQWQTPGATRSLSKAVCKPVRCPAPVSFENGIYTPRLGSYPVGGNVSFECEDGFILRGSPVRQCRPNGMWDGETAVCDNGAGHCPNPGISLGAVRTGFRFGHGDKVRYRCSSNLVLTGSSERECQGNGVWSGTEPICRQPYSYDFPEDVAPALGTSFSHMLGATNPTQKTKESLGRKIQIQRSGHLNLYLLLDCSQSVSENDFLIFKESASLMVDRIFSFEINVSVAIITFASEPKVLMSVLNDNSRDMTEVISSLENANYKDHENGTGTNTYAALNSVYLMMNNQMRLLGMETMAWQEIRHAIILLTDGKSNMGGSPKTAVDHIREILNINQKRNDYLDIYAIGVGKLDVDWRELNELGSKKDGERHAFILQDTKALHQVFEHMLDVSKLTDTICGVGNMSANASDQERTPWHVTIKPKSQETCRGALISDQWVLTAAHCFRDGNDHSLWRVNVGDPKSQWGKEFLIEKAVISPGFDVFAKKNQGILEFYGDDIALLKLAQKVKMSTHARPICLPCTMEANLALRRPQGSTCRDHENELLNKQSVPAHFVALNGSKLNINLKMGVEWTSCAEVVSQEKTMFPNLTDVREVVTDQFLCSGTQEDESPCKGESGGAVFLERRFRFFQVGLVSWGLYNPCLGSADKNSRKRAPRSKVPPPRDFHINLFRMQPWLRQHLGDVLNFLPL

Data set [3] has as its target Complement C5 (human).
The target in data set [4] is Complement C3 (human).
For data set [5], the target named is Complement component C7 (human).
Data set [6] concerns the target T2, rat complement C2 (in plasma of treated rats), Q8CIP8.
T2 chain: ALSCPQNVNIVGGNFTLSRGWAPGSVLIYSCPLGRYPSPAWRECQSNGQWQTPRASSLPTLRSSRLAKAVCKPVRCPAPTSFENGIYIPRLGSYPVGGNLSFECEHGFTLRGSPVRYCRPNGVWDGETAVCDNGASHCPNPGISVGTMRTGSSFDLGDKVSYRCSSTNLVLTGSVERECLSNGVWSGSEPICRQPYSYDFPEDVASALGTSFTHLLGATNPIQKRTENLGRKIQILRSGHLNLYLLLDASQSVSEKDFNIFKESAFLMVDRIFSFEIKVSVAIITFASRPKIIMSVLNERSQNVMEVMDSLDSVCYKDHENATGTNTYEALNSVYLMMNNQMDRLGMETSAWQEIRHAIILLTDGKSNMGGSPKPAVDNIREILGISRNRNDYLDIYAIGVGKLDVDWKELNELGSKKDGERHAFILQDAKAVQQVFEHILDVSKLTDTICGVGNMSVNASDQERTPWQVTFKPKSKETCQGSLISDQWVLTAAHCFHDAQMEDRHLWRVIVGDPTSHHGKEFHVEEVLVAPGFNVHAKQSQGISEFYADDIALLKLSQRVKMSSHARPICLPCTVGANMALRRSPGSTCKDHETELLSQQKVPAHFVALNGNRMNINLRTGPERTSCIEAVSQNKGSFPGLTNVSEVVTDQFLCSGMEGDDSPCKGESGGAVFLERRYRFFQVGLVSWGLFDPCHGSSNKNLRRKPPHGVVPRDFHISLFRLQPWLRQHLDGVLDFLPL

Sequence of Complement C5 (human) (chain, as listed by the source, chain 1 of 2): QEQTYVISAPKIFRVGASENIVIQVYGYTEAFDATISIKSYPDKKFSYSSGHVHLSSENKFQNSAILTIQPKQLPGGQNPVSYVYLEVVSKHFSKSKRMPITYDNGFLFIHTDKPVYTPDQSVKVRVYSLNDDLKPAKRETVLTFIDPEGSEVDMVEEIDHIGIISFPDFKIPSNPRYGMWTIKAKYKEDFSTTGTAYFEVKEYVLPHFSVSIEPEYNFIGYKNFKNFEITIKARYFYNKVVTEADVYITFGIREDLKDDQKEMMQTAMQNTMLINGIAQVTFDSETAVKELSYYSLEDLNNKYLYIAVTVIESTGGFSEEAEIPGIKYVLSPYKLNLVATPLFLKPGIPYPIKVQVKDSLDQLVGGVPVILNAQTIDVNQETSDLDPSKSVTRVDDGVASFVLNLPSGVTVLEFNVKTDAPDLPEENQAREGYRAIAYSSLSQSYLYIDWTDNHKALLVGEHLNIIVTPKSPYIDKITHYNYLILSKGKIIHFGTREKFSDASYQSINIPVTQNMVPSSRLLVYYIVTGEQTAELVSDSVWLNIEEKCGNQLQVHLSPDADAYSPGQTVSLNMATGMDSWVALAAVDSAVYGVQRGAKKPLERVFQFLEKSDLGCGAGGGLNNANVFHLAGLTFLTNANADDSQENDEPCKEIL
Sequence of Complement C5 (human) (chain, as listed by the source, chain 2 of 2): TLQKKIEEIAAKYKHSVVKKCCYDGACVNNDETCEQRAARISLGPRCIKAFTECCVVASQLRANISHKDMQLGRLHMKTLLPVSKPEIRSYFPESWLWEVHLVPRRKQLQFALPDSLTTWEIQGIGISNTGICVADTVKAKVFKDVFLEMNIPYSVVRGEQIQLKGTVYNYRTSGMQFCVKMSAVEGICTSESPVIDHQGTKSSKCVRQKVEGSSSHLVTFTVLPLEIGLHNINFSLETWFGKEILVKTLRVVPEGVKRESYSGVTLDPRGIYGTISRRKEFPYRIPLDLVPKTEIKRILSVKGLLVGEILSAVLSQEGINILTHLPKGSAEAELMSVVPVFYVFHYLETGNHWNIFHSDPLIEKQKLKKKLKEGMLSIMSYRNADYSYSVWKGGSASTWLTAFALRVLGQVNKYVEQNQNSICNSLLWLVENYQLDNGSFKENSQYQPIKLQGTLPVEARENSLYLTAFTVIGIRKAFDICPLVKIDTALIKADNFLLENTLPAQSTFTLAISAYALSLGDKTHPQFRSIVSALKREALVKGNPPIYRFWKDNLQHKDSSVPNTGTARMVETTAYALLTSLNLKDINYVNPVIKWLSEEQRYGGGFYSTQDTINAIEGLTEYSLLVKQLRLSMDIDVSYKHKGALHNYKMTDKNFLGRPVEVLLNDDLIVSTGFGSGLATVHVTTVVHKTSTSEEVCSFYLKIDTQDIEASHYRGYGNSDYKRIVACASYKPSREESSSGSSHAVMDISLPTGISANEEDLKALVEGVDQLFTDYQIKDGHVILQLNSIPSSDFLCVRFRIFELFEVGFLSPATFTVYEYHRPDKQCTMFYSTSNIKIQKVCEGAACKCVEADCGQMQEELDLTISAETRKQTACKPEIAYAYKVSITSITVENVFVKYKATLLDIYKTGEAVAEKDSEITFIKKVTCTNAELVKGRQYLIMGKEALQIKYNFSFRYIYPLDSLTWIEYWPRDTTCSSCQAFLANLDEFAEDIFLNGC
Sequence of Complement component C9 (human) (chain, as listed by the source): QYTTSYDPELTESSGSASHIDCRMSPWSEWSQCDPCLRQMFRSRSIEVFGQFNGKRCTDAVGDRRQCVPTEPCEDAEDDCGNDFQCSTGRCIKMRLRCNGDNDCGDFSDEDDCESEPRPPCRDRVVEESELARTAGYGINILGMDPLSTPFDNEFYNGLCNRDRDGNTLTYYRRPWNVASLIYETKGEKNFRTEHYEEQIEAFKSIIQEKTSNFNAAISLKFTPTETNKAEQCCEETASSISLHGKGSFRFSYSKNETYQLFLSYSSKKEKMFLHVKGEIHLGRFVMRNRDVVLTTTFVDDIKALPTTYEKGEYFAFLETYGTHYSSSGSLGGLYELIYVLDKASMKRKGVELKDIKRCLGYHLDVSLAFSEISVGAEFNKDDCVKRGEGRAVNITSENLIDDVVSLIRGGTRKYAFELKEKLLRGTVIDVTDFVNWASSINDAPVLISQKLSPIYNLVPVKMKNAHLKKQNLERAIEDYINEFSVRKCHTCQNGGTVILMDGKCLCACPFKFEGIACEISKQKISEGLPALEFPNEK
Sequence of Complement component C7 (human) (chain, as listed by the source): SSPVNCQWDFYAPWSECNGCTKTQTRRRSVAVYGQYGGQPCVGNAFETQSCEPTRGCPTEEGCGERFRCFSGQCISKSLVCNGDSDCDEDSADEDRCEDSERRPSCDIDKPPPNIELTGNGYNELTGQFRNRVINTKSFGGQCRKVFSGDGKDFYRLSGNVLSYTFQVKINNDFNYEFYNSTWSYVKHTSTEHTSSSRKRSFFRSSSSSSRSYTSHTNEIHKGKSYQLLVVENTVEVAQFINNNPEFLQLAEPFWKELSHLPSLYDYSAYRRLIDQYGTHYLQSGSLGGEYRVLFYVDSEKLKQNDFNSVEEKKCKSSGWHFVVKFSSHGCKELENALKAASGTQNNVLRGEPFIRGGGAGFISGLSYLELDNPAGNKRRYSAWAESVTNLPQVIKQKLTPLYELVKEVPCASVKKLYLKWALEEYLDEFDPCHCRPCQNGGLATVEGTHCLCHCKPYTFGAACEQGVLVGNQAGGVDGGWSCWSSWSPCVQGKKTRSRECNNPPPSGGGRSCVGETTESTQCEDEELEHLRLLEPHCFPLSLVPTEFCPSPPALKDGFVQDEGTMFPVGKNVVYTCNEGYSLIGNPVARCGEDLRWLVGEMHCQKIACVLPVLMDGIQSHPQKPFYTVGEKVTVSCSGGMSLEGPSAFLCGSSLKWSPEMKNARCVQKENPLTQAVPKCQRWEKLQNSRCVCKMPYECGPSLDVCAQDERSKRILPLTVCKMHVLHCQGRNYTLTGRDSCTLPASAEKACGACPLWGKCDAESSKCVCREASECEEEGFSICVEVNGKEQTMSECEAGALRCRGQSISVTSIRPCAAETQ

B1: modified MT-SP1 CB252 (Y146E/K224N) protease domain (protein)
chain: VVGGTDADEGEWPWQVSLHALGQGHICGASLISPNWLVSAAHCYIDDRGFRYSDPTQWTAFLGLHDQSQRSAPGVQERRLKRIISHPFFNDFTFDYDIALLELEKPAEYSSMVRPICLPDASHVFPAGKAIWVTGWGHTQEGGTGALILQKGEIRVINQTTCENLLPQQITPRMMCVGFLSGGVDSCQGDSGGPLSSVEADGRIFQAGVVSWGDGCAQRNNPGVYTRLPLFRDWIKENTGV
B1: the “hemolysis (OD415) by protease-preincubated purified complement protein added back to the corresponding depleted sera” value in data set [1] is “showed no decreased hemolysis as compared to normal sera or the no protease control”; in data set [2], “resulted in an inhibition of hemolysis as assessed by a reduced OD415 absorbance to levels comparable to the depleted sera control”; in data set [3], “showed no decreased hemolysis as compared to normal sera or the no protease control”; in data set [4], “showed no decreased hemolysis as compared to normal sera or the no protease control”; in data set [5], “showed no decreased hemolysis as compared to normal sera or the no protease control”. Further, the “cleavage in 90% human plasma by Western blot” value in data set [2] was “cleaved C2 in human plasma in a dose-dependent manner”; in data set [4] it was “none of the tested proteases cleaved C3 in human plasma as compared to the no protease control even at the highest concentration of protease (2000 nM)”. In data set [2], the “cleavage of purified C2 by 100 nM protease, SDS-PAGE and Coomassie” value is “C2 was almost completely degraded to yield cleavage products of about 70 kD and 23 kD corresponding to C2a and C2b, respectively”. Besides, the “fraction C5b-9 generated, Total Complement System Screen (classical and MBL pathways), 1 uM protease in human plasma” value in data set [2] is “the fraction C5b-9 generated upon complement activation induced by the classical and MBL pathways was almost completely inhibited”. In data set [6], the “C2 Western blot of plasma from rats dosed IV with the protease” value is given as “CB252 showed a greater cleavage of C2 as there was little detectable C2 present in the plasma samples as assessed by Western Blot even after only 5 minutes following injection, with no detectable C2 present at 60 or 120 minutes after injection”.

B2: modified MT-SP1 CB377 (Y146E/Q175D/K224N) protease domain (protein)
chain: VVGGTDADEGEWPWQVSLHALGQGHICGASLISPNWLVSAAHCYIDDRGFRYSDPTQWTAFLGLHDQSQRSAPGVQERRLKRIISHPFFNDFTFDYDIALLELEKPAEYSSMVRPICLPDASHVFPAGKAIWVTGWGHTQEGGTGALILQKGEIRVINQTTCENLLPQDITPRMMCVGFLSGGVDSCQGDSGGPLSSVEADGRIFQAGVVSWGDGCAQRNNPGVYTRLPLFRDWIKENTGV
On to B2, for which the “hemolysis (OD415) by protease-preincubated purified complement protein added back to the corresponding depleted sera” value in data set [1] is given as “showed no decreased hemolysis as compared to normal sera or the no protease control”; in data set [2], “resulted in an inhibition of hemolysis as assessed by a reduced OD415 absorbance to levels comparable to the depleted sera control”; in data set [3], “showed no decreased hemolysis as compared to normal sera or the no protease control”; in data set [4] it was “showed no decreased hemolysis as compared to normal sera or the no protease control”; in data set [5] it was “showed no decreased hemolysis as compared to normal sera or the no protease control”. Moreover, the “cleavage in 90% human plasma by Western blot” value in data set [2] is recorded as “cleaved C2 in human plasma in a dose-dependent manner”; in data set [4] it was “none of the tested proteases cleaved C3 in human plasma as compared to the no protease control even at the highest concentration of protease (2000 nM)”. Besides, the “cleavage of purified C2 by 100 nM protease, SDS-PAGE and Coomassie” value in data set [2] is “C2 was almost completely degraded to yield cleavage products of about 70 kD and 23 kD corresponding to C2a and C2b, respectively”. Besides, the “fraction C5b-9 generated, Total Complement System Screen (classical and MBL pathways), 1 uM protease in human plasma” value in data set [2] was “the fraction C5b-9 generated upon complement activation induced by the classical and MBL pathways was almost completely inhibited”. In data set [6], the “C2 Western blot of plasma from rats dosed IV with the protease” value was “CB377 also showed diminished C2 levels as compared to vehicle control at early time points, however, by 60 minutes and 120 minutes the levels of C2 were comparable to those from vehicle control samples”.

The values are drawn from US20070093443.
